In patent US20200325232A1 (INNATE PHARMA, published 2020):

How the values were obtained:
CD19 = target: T1, CD19 (UniProt P15391 20-556, limits assumed); experiment: cell-based or functional assay
T1 sequence (looked up): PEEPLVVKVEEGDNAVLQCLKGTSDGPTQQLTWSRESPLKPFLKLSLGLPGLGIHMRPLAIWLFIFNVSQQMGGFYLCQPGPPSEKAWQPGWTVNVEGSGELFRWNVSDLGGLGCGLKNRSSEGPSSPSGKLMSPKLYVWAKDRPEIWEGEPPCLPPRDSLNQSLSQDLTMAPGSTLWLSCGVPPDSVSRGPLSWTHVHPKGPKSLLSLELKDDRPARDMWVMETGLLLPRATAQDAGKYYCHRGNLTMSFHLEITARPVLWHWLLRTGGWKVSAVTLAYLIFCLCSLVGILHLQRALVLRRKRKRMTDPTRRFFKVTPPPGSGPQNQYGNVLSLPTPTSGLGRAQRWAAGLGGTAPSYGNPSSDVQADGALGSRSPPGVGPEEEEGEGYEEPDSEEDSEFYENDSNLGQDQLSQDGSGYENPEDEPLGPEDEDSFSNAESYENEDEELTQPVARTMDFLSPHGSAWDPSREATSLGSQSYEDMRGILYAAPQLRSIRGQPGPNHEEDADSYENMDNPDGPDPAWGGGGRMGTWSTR

human NKp46 = target: T2, human NKp46 (human, UniProt O76036 22-304); experiment: flow cytometry screen of Example 1 on a cell line expressing human NKp46
T2 construct: The screen used a cell line expressing 'the human NKp46 construct' at the cell surface; In the lysis assays NKp46 is on fresh human NK cells; also called huNKp46; NKp46 receptor
Experimental: Primary screen: Supematant (SN) of growing clones were tested in a primary screen by flow cytometry using a cell line expressing the human NKp46 construct at the cell surface.

T2 sequence (O76036 22-304 Q82K limits assumed): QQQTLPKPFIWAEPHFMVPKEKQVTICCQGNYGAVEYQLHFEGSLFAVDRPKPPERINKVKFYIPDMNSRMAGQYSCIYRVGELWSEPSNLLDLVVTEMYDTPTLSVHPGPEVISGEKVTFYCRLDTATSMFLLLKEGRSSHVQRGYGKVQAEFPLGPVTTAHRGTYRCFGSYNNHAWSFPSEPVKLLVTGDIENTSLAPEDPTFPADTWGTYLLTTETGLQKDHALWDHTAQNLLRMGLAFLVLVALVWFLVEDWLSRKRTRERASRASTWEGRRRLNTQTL

B1: CD19-F18-NKp46-1 (bispecific antibody)
chain 1: not shown
chain 2: not shown
chain 3: DIQMTQTTSSLSASLGDRVTISCRASQDISNYLNWYQQKPDGTVKLLIYYTSRLHSGVPSRFSGSGSGTDYSLTINNLEQEDIATYFCQQGNTRPWTFGGGTKLEIKASTKGPSVFPLAPSSKSTSGGTAALGCLVKDYFPEPVTVSWNSGALTSGVHTFPAVLQSSGLYSLSSVVTVPSSSLGTQTYICNVNHKPSNTKVDKRVEPKSCDKTH
EC50 of Daudi target cell lysis by NK cells (4-h 51Cr-release assay) (CD19): ~1 picomolar

B2: CD19-F20-NKp46-1 (bispecific antibody, human IgG1, kappa)
chain 1: not shown
chain 2: not shown
chain 3: DIQMTQTTSSLSASLGDRVTISCRASQDISNYLNWYQQKPDGTVKLLIYYTSRLHSGVPSRFSGSGSGTDYSLTINNLEQEDIATYFCQQGNTRPWTFGGGTKLEIKASTKGPSVFPLAPSSKSTSGGTAALGCLVKDYFPEPVTVSWNSGALTSGVHTFPAVLQSSGLYSLSSVVTVPSSSLGTQTYICNVNHKPSNTKVDKRVEPKSCDKTH
EC50 of Daudi target cell lysis by NK cells (4-h 51Cr-release assay) (CD19): ~1 picomolar

B3: CD19-F19-NKp46-1 (bispecific antibody, human IgG1, kappa)
chain 1: not shown
chain 2: not shown
chain 3: DIQMTQTTSSLSASLGDRVTISCRASQDISNYLNWYQQKPDGTVKLLIYYTSRLHSGVPSRFSGSGSGTDYSLTINNLEQEDIATYFCQQGNTRPWTFGGGTKLEIKASTKGPSVFPLAPSSKSTSGGTAALGCLVKDYFPEPVTVSWNSGALTSGVHTFPAVLQSSGLYSLSSVVTVPSSSLGTQTYICNVNHKPSNTKVDKRVEPKSCDKTH
EC50 of Daudi target cell lysis by NK cells (4-h 51Cr-release assay) (CD19): ~1 picomolar

B4: NKp46-3 (antibody, V domains shown)
VH: EVQLQQSGPELVKPGASVKISCKTSGYTFTEYTMHWVKQSHGKSLEWIGGISPNIGGTSYNQKFKGKATLTVDKSSSTAYMELRSLTSEDSAVYYCARRGGSFDYWGQGTTLTVSS
VL: DIVMTQSPATLSVTPGDRVSLSCRASQSISDYLHWYQQKSHESPRLLIKYASQSISGIPSRFSGSGSGSDFTLSINSVEPEDVGVYYCQNGHSFPLTFGAGTKLELK
notes: Mouse hybridoma antibody (Balb/c immunisation); also called anti-NKp46 (NKp46-3)
binding result (human NKp46): binds
